Assay [1] has as its target T1, Green Fluorescent Protein (GFP) (UniProt P42212 1-238 = GFP, biotin on the avi-tag (in-vivo biotinylation)). Kind of assay: SPR.
Assay [2] has as its target T1, Green Fluorescent Protein (GFP). Kind of assay: SPR. This is another data set of the same source.
For assay [3] the target is unchanged. Nature of the assay: FP; PBS with 0.03% BSA.
The target is the same in assay [4]. Kind of assay: FP; PBS with 0.005% Tween-20.
The target in a further assay is superfolder GFP (sfGFP) (UniProt P42212 = GFP, biotin (in-vivo biotinylated, in the ELISA)). Nature of the assay: FP.
For assay [5], the target named is T1, Green Fluorescent Protein (GFP). Nature of the assay: FP.

B1: DARPin 3G61 (designed binder)
chain: MRGSHHHHHHGSDLGKKLLEAARAGQDDEVRILMANGADVNALDEVGWTPLHLAAWGHLEIVEVLLKNGADVNAADIDGYTPLHLAAFSGHLEIVEVLLKYGADVNADDQAGFTPLHLAAIFGHLEIVEVLLKNGADVNAQDKFGKTAFDISIDNGNEDLAEILQKLN
For B1, the Kd was 1.1 nM in assay [1], 76 nM in assay [3], less than 5 nM in assay [4] and 96 nM in the assay with superfolder GFP (sfGFP). Also, the koff in assay [2] worked out at 0.000797 s⁻¹.

B2: DARPin 3G86.32 (designed binder)
chain: MRGSHHHHHHGSDLGKKLLEAARAGQDDEVRILMANGADVNALDRFGLTPLHLAAQRGHLEIVEVLLKCGADVNAADLWGQTPLHLAATAGHLEIVEVLLKYGADVNALDLIGKTPLHLTAIDGHLEIVEVLLKHGADVNAQDKFGKTAFDISIDNGNEDLAEILQKLN
Turning to B2, the koff in assay [2] was 0.00022 s⁻¹. In addition, the Kd in assay [5] is less than 5 nM; with superfolder GFP (sfGFP) it was 5.3 nM.

B3: DARPin 3G86.1 (designed binder)
chain: MRGSHHHHHHGSDLGKKLLEAARAGQDDEVRILMANGADVNALDRFGLTPLHLAAQRGHLEIVEVLLKCGADVNAADLWGQTPLHLAATAGHLEIVEVLLKNGADVNARDNIGHTPLHLAAWAGHLEIVEVLLKHGADVNAQDKFGKTAFDISIDNGNEDLAEILQKLN
B3: the Kd is 0.32 nM in assay [1], less than 5 nM in assay [5] and 29 nM with superfolder GFP (sfGFP). This molecule gave a koff in assay [2] of 0.000369 s⁻¹.

B4: DARPin 3G124 (designed binder)
chain: DLGKKLLEAARAGQDDEVRILMANGADVNAADDVGVTPLHLAAQRGHLEIVEVLLKYGADVNAADLWGQTPLHLAATAGHLEIVEVLLKNGADVNARDNIGHTPLHLAAWAGHLEIVEVLLKYGADVNAQDKFGKTAFDISIDNGNEDLAEILQ
In the case of B4, the Kd in assay [1] is 0.36 nM; in assay [5], less than 5 nM; with superfolder GFP (sfGFP), 22 nM. The molecule further gave a koff in assay [2] of 0.000228 s⁻¹.

For the origin of these results see publication PMC4265764 (2014).
